Measurements: paper doi:10.1101/332015 (bioRxiv, 2018)

Experiments:
[1] = target: full-length human ARC (ARC_(1-396)) (human) (UniProt Q7LC44); experiment: SEC-MALS
[2] = target: T1, ARC_(206-396) (human, UniProt Q7LC44 206-396); experiment: SAXS
T1 sequence (looked up): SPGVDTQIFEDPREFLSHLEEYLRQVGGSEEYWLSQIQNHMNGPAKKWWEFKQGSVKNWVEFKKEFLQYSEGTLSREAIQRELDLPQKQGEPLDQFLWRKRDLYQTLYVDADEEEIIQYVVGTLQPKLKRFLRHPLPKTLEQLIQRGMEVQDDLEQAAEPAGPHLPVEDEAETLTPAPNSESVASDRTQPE

[3] = target: T2, ARC_(206-361) (human, UniProt Q7LC44 206-361); experiment: SAXS
T2 sequence (looked up): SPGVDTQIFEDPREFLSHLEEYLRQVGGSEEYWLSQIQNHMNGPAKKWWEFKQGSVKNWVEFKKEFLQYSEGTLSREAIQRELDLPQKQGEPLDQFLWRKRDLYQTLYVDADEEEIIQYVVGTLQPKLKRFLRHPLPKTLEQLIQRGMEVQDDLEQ

[4] = target: T3, ARC_(131-396) (human, UniProt Q7LC44 131-396); experiment: SAXS
T3 sequence (looked up): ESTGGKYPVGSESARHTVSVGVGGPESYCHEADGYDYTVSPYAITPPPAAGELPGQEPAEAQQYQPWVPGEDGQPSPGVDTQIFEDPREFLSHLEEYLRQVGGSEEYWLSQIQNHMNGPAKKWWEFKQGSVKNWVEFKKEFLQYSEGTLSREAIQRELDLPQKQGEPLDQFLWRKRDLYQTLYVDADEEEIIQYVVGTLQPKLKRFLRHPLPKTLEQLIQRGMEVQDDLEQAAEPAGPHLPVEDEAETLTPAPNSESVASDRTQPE

[5] = target: T4, ARC_(170-396) (human, UniProt Q7LC44 170-396); experiment: SAXS
T4 sequence (looked up): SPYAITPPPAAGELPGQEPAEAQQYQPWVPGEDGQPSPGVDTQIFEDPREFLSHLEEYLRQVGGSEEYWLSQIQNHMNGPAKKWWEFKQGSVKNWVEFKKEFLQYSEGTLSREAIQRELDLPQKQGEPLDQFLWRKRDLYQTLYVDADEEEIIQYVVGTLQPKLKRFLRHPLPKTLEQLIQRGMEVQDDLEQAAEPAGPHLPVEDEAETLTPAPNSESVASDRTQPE

[6] = target: T5, ARC_(207-277) (human, UniProt Q7LC44 207-277); experiment: synchrotron radiation circular dichroism
T5 sequence (looked up): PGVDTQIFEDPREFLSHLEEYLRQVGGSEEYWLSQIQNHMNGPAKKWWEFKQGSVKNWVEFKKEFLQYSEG

[7] = target: T5, ARC_(207-277); experiment: SAXS

Molecule | stoichiometry N [1] | binding result [2] | binding result [3] | binding result [4] | binding result [5] | binding result [6] | binding result [7]
full-length human ARC (ARC_(1-396)) (from UniProt Q7LC44 1-396) (natural protein) | 2 |  |  |  |  |  | 
Ac-RIPSYRYR-NH2 [Stargazin peptide (RIPSYRYR)] |  | binds | binds | binds | binds | binds | 
Ac-RTPVFVSP-NH2 [WAVE1 peptide (RTPVFVSP)] |  | binds | binds | binds | binds |  | binds
Ac-TSPKFRSR-NH2 [GKAP peptide (TSPKFRSR)] |  | binds | binds | binds | binds |  | binds
